Test results taken from patent US20230125550A1 (ARCELLX, published 2023).

T1: recombinant human CD123-Fc (human, UniProt P26951 19-305)
T1 construct: not shown: Fc part of CD123-Fc
T1 sequence: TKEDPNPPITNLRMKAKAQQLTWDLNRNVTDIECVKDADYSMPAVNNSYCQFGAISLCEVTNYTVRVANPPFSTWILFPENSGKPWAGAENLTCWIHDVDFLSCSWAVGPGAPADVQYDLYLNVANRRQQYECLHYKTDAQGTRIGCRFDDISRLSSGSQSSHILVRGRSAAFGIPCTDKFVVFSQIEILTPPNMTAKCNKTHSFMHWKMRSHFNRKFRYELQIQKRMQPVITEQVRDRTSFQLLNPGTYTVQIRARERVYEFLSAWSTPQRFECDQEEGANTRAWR

B1: SEQ ID NO: 555 (designed binder)
chain: MGSWEEFDTRLLAIFGRLGALGGSEAELALFEMLIAKFEDDLQNYKGKGNPEVEALSEEAFAIDHELGAYRHN
notes: D domain, on phage
B2: SEQ ID NO: 552 (designed binder)
chain: MGSWYEFESRLEAIWWRLEALGGSEAELAQFEQYIADFEQHLQWYKGKGNPEVEALDWEADAIWLELQAYRHN
notes: D domain, on phage
B3: SEQ ID NO: 583 (designed binder)
chain: MGSWLEFEYRLDAIYDRLFALGGSEAELAAFEQDIADFEKYLQYYKGKGNPEVEALWEEADAIMWELFAYRHN
notes: D domain, on phage
B4: SEQ ID NO: 557 (designed binder)
chain: MGSWEEFHERLDAIDERLEALGGSEAELAFFEDDIASFEDWLQWYKGKGNPEVEALSREADAINFELEAYRHN
notes: D domain, on phage
B5: SEQ ID NO: 558 (designed binder)
chain: MGSWNEFYERLEAIDRRLFALGGSEAELALFEWMIADFEDDLQMYKGKGNPEVEALINEAGAIGFELEAYRHN
notes: D domain, on phage
B6: SEQ ID NO: 556 (designed binder)
chain: MGSWREFDQRLWAIDWRLEALGGSEAELAMFEWMIATFEDDLQWYKGKGNPEVEALYREAFAIDWELDAYRHN
notes: D domain, on phage
B7: SEQ ID NO: 580 (designed binder)
chain: MGSWIEFFHRLDAIQDRLDALGGSEAELAYFEWAIADFEHMLQLYKGKGNPEVEALQFEAFAIEGELYAYRHN
notes: D domain, on phage
B8: SEQ ID NO: 576 (designed binder)
chain: MGSWMEFEDRLIAIWARLDALGGSEAELAWFEADIADFEESLQEYKGKGNPEVEALIFEAIAINKELMAYRHN
notes: D domain, on phage
B9: SEQ ID NO: 585 (designed binder)
chain: MGSWYEFEERLDAIEDRLIALGGSEAELAIFEDIIAFFEQDLQYYKGKGNPEVEALEMEAEAISIELDAYRHN
notes: D domain, on phage
B10: SEQ ID NO: 578 (designed binder)
chain: MGSWYEFVSRLDAIEYRLWALGGSEAELAWFEWDIADFEQGLQFYKGKGNPEVEALAQEANAIGSELTAYRHN
notes: D domain, on phage
B11: SEQ ID NO: 560 (designed binder)
chain: MGSWVEFIMRLDAIYERLDALGGSEAELAEFEWHIADFEDHLQWYKGKGNPEVEALFEEADAIWEELWAYRHN
notes: D domain, on phage
B12: SEQ ID NO: 567 (designed binder)
chain: MGSWYEFWDRLTAIEHRLWALGGSEAELAYFEDSIAHFEGSLQVYKGKGNPEVEALYKEAEAIEWELEAYRHN
notes: D domain, on phage
B13: SEQ ID NO: 584 (designed binder)
chain: MGSWHEFEERLMAIEDRLWALGGSEAELAEFEQWIALFEYDLQEYKGKGNPEVEALGMEAFAINNELSAYRHN
notes: D domain, on phage
B14: SEQ ID NO: 549 (designed binder)
chain: MGSWSEFDQRLEAIWNRLDALGGSEAELADFEREIAYFENQLQWYKGKGNPEVEALNNEAFAIVDELGAYRHN
notes: D domain, on phage
B15: SEQ ID NO: 561 (designed binder)
chain: MGSWNEFLLRLDAIEHRLFALGGSEAELAEFEWEIADFEDDLQWYKGKGNPEVEALVEEAEAIDVELVAYRHN
notes: D domain, on phage
B16: SEQ ID NO: 575 (designed binder)
chain: MGSWLEFESRLWAIWDRLDALGGSEAELAHFEQDIADFEMSLQEYKGKGNPEVEALIREAEAIETELYAYRHN
notes: D domain, on phage
B17: SEQ ID NO: 573 (designed binder)
chain: MGSWTEFEERLEAIWDRLYALGGSEAELAAFEWDIAYFEDGLQEYKGKGNPEVEALFMEAEAIIRELKAYRHN
notes: D domain, on phage
B18: SEQ ID NO: 574 (designed binder)
chain: MGSWYEFEDRLAAIWDRLNALGGSEAELAIFEWDIAWFEEGLQEYKGKGNPEVEALKHEASAIQTELFAYRHN
notes: D domain, on phage
B19: SEQ ID NO: 563 (designed binder)
chain: MGSWEEFHWRLGAIDARLEALGGSEAELAWFEDGIADFEAILQDYKGKGNPEVEALDSEAVAIHHELWAYRHN
notes: D domain, on phage
B20: SEQ ID NO: 551 (designed binder)
chain: MGSWMEFDYRLEAIWMRLIALGGSEAELADFESSIADFEHHLQSYKGKGNPEVEALEWEAFAIGVELDAYRHN
notes: D domain, on phage
B21: SEQ ID NO: 570 (designed binder)
chain: MGSWSEFVDRLDAIFDRLWALGGSEAELAWFEDTIAHFEWNLQEYKGKGNPEVEALNGEADAITDELHAYRHN
notes: D domain, on phage
B22: SEQ ID NO: 546 (designed binder)
chain: MGSWNEFDDRLLAIWGRLDALGGSEAELAFFEEQIAGFEDELQWYKGKGNPEVEALDQEAEAIEKELWAYRHN
notes: D domain, on phage
B23: SEQ ID NO: 582 (designed binder)
chain: MGSWFEFEYRLDAIIDRLFALGGSEAELAEFESMIANFEYSLQEYKGKGNPEVEALYFEADAIVDELTAYRHN
notes: D domain, on phage
B24: SEQ ID NO: 550 (designed binder)
chain: MGSWYEFDERLWAIWERLDALGGSEAELAHFEWVIADFENDLQWYKGKGNPEVEALEFEAEAIVTELHAYRHN
notes: D domain, on phage
B25: SEQ ID NO: 577 (designed binder)
chain: MGSWFEFTIRLEAIQDRLDALGGSEAELAWFEWDIAEFEEGLQFYKGKGNPEVEALHTEADAIMNELVAYRHN
notes: D domain, on phage
B26: SEQ ID NO: 548 (designed binder)
chain: MGSWTEFDDRLFAIYWRLDALGGSEAELAWFEEVIAEFENDLQVYKGKGNPEVEALDDEAHAISIELEAYRHN
notes: D domain, on phage
B27: SEQ ID NO: 587 (designed binder)
chain: MGSWIEFEDRLDAITDRLWALGGSEAELAEFEHQIAFFEEDLQWYKGKGNPEVEALHMEAEAIMEELGAYRHN
notes: D domain, on phage
B28: SEQ ID NO: 566 (designed binder)
chain: MGSWSEFWFRLDAIEDRLWALGGSEAELAEFEDNIALFEYSLQHYKGKGNPEVEALVKEANAIDDELGAYRHN
notes: D domain, on phage
B29: SEQ ID NO: 586 (designed binder)
chain: MGSWHEFEKRLYAIEDRLIALGGSEAELAWFEDSIAWFEWDLQMYKGKGNPEVEALNEEADAIYQELDAYRHN
notes: D domain, on phage
B30: SEQ ID NO: 559 (designed binder)
chain: MGSWTEFTQRLEAIVDRLFALGGSEAELAEFENSIADFEWDLQWYKGKGNPEVEALNREAVAIDNELWAYRHN
notes: D domain, on phage
B31: SEQ ID NO: 562 (designed binder)
chain: MGSWYEFNMRLGAIDDRLQALGGSEAELAWFEDMIAIFEDDLQIYKGKGNPEVEALEQEAAAIHQELWAYRHN
notes: D domain, on phage
B32: SEQ ID NO: 569 (designed binder)
chain: MGSWNEFVERLSAIDHRLWALGGSEAELADFEQQIAEFEIHLQEYKGKGNPEVEALDFEADAIFDELLAYRHN
notes: D domain, on phage
B33: SEQ ID NO: 564 (designed binder)
chain: MGSWYEFYERLWAIDDRLWALGGSEAELAEFEDSIATFEPSLQMYKGKGNPEVEALVAEAWAIFDELAAYRHN
notes: D domain, on phage
B34: SEQ ID NO: 579 (designed binder)
chain: MGSWEEFDYRLYAIQDRLYALGGSEAELAFFEWEIADFEHMLQMYKGKGNPEVEALFQEADAIDAELHAYRHN
notes: D domain, on phage
B35: SEQ ID NO: 571 (designed binder)
chain: MGSWAEFDSRLDAIAQRLFALGGSEAELAHFEDFIAQFEYSLQEYKGKGNPEVEALSNEADAIFNELKAYRHN
notes: D domain, on phage
B36: SEQ ID NO: 581 (designed binder)
chain: MGSWYEFSSRLNAIDDRLWALGGSEAELAYFETDIADFESLLQWYKGKGNPEVEALLNEADAIDYELYAYRHN
notes: D domain, on phage
B37: SEQ ID NO: 553 (designed binder)
chain: MGSWEEFYMRLVAIHMRLRALGGSEAELAVFENYIAEFEEYLQYYKGKGNPEVEALTIEADAIGTELGAYRHN
notes: D domain, on phage
B38: SEQ ID NO: 565 (designed binder)
chain: MGSWFEFDQRLDAITFRLWALGGSEAELAEFEDVIALFEYHLQDYKGKGNPEVEALEVEAWAIFHELGAYRHN
notes: D domain, on phage
B39: SEQ ID NO: 568 (designed binder)
chain: MGSWYEFDDRLWAIFDRLFALGGSEAELAFFEDSIAEFEEELQHYKGKGNPEVEALYLEAWAIENELGAYRHN
notes: D domain, on phage
B40: SEQ ID NO: 547 (designed binder)
chain: MGSWVEFDDRLDAIWERLDALGGSEAELAWFEEQIAVFEHQLQDYKGKGNPEVEALNQEAEAIDLELKAYRHN
notes: D domain, on phage
B41: SEQ ID NO: 554 (designed binder)
chain: MGSWDEFYYRLVAITHRLHALGGSEAELAWFEDDIAGFEWDLQTYKGKGNPEVEALYKEAGAIGMELTAYRHN
notes: D domain, on phage
B42: SEQ ID NO: 572 (designed binder)
chain: MGSWAEFDSRLIAIFDRLWALGGSEAELAWFEDDIAQFEQHLQAYKGKGNPEVEALRQEADAITFELKAYRHN
notes: D domain, on phage

biological target: T1, recombinant human CD123-Fc; experiment: phage ELISA, captured CD123-Fc
In short: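 Readout is the clone-averaged A450 ratio of target-Fc over IgG1-Fc wells, detected with HRP-conjugated anti-M13. Each Fc protein (5 nM) was captured on goat anti-human IgG1-Fc-coated plates. Phage were rescued with VCSM13 from BCMA-panning colonies and added at 5× dilution.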

| Binder | ELISA_avg [ratio A450 target/IgG1-Fc] |
| --- | --- |
| B1 | 6.7 |
| B2 | 4.4 |
| B3 | 3.1 |
| B4 | 4.3 |
| B5 | 5.2 |
| B6 | 3.4 |
| B7 | 3.5 |
| B8 | 3.7 |
| B9 | 4.1 |
| B10 | 3.2 |
| B11 | 6.4 |
| B12 | 4.4 |
| B13 | 5.8 |
| B14 | 3.4 |
| B15 | 3.2 |
| B16 | 3.4 |
| B17 | 5.9 |
| B18 | 6.4 |
| B19 | 3.3 |
| B20 | 3.1 |
| B21 | 5.3 |

| Binder | ELISA_avg [ratio A450 target/IgG1-Fc] |
| --- | --- |
| B22 | 4.1 |
| B23 | 4 |
| B24 | 3.6 |
| B25 | 3.5 |
| B26 | 6.4 |
| B27 | 9.5 |
| B28 | 4.5 |
| B29 | 3.6 |
| B30 | 3.9 |
| B31 | 3.8 |
| B32 | 3.2 |
| B33 | 3.6 |
| B34 | 4.4 |
| B35 | 3.6 |
| B36 | 3.8 |
| B37 | 4.4 |
| B38 | 3.2 |
| B39 | 4.7 |
| B40 | 5 |
| B41 | 5.4 |
| B42 | 3.6 |
